{
  "source": "patent US11866760B2",
  "about": "“Microorganisms for the production of insect pheromones and related compounds” (Provivi, Inc., priority 2017, dated 2024)",
  "molecules": {"B1": {"name": "HaFAR (S418A) (protein)", "chain": "MVVLTSKETKPSVAEFYAGKSVFITGGTGFLGKVFIEKLLYSCPDIENIYMLIREKKGLSVSERIKQFLDDPLFTRLKDKRPADLEKIVLIPGDITAPDLGINSENEKMLIEKVSVIIHSAATVKFNEPLPTAWKINVEGTRMMLALSRRMKRIEVFIHISTAYTNTNREVVDEILYPAPADIDQVHQYVKDGISEEDTEKILNGRPNTYTFTKALTEHLVAENQAYVPTIIVRPSVVAAIKDEPLKGWLGNWFGATGLTVFTAKGLNRVIYGHSSYIVDLIPVDYVANLVIAAGAKSSKSTELKVYNCCSSSCNPVTIGTLMSMFADDAIKQKSYAMPLPGWYIFTKYKWLVLLLTFLFQVIPAYVTDLSRHLIGKSPRYIKLQSLVNQTRSSIDFFTNHSWVMKADRVRELYASLAPADKYLFPCDPTDINWTHYIQDYCWGVRHFLEKKSYE"}, "B2": {"name": "HaFAR (S195A) (protein)", "chain": "MVVLTSKETKPSVAEFYAGKSVFITGGTGFLGKVFIEKLLYSCPDIENIYMLIREKKGLSVSERIKQFLDDPLFTRLKDKRPADLEKIVLIPGDITAPDLGINSENEKMLIEKVSVIIHSAATVKFNEPLPTAWKINVEGTRMMLALSRRMKRIEVFIHISTAYTNTNREVVDEILYPAPADIDQVHQYVKDGIAEEDTEKILNGRPNTYTFTKALTEHLVAENQAYVPTIIVRPSVVAAIKDEPLKGWLGNWFGATGLTVFTAKGLNRVIYGHSSYIVDLIPVDYVANLVIAAGAKSSKSTELKVYNCCSSSCNPVTIGTLMSMFADDAIKQKSYAMPLPGWYIFTKYKWLVLLLTFLFQVIPAYVTDLSRHLIGKSPRYIKLQSLVNQTRSSIDFFTNHSWVMKADRVRELYASLSPADKYLFPCDPTDINWTHYIQDYCWGVRHFLEKKSYE"}},
  "key": {"ALE1p (=LCA1p)": {"molecular_target": "T1, ALE1p (=LCA1p) (Saccharomyces cerevisiae, UniProt Q08548)", "T1 sequence (Q08548 1-619)": "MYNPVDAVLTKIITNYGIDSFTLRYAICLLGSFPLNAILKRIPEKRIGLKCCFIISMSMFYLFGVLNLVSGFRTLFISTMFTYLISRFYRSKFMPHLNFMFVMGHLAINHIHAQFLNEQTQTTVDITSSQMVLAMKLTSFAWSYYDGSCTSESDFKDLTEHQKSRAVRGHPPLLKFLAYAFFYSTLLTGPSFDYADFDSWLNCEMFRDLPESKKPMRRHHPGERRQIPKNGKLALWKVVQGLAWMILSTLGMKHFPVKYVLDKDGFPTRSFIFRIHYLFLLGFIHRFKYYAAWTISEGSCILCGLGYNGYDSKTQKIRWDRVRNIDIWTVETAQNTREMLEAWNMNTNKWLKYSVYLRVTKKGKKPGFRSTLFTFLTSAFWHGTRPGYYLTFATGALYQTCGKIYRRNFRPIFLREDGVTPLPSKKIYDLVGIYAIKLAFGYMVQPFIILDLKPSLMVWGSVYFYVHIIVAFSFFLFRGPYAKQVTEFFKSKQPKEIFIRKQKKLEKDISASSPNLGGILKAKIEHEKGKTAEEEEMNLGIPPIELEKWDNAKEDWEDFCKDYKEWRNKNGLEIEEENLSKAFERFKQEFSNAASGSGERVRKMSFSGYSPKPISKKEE", "conditions": "Chen Q et al. 2007; cited from earlier work"}, "methyl palmitate [1]": {"tested_on": "methyl palmitate", "experiment": "HaFAR mutant library cultivation in shake flasks", "assay_type": "cell-based, Yarrowia lipolytica", "conditions": "shake flask experiments, 10 g/L methyl palmitate", "procedure": "In a first step a shake flask experiment of the respective strains was performed to analyze fatty alcohol and fatty acid formation over time. The best performing clone of the strains expressing HaFAR, HaFAR S195A and HaFAR S418A were tested. 10 mL YPD was inoculated from patches of individual clones and incubated for 24 h at 28° C., 250 rpm in a 125 mL shake flask. Next, 25 mL YPD were inoculated with 5 mL starter culture in 500 mL shake flasks and incubated for 24 h at 28° C., 250 rpm. The cells were harvested and the pellets were resuspended in 15 mL S2 media and 10 g/L methyl palmitate was added. OD600 was measured and subsequently methyl palmitate was added. […] 4×0.5 mL samples were taken every 24 h and stored at −20° C. until analyzed according to a previously established standard protocol (FIG. 47 and FIG. 48). To improve sampling and reduce the standard deviation, samples were transferred directly into GC crimp vials and stored until analyzed.\nThus, sampling was reduced to 20 h. In previous 24 well plate bioconversion experiments the measured biomass was ˜2× higher compared to the shake flask experiment. […] The cells were harvested and the pellets were resuspended in 10 mL S2 media and 10 g/L, OD600 was measured and subsequently methyl palmitate was added. […] 4×0.5 mL samples were taken and analyzed according to a previously established standard protocol (FIG. 49). […]"}, "methyl palmitate [2]": {"tested_on": "methyl palmitate", "experiment": "HaFAR mutant library cultivation in 24 well plates in Y. lipolytica SPV603", "assay_type": "cell-based, Yarrowia lipolytica", "conditions": "second FAR copy in SPV603, 24 well plates", "procedure": "Four individual clones of positive integrants were tested. Cultivation was performed in 24 well plates. Briefly, 2 mL YPD was inoculated from patches of individual clones and incubated for 24 h at 28° C., 1000 rpm. After 24 h OD600 was measured and the cells were centrifuged at 1000 rpm (Table 23). The cell pellets were resuspended in 1 mL S2 media and 10 g/L methyl palmitate was added. The cells were incubated for 18 h at 28° C., 1000 rpm. Cultivations were stored at −20° C. until analyzed. Extraction and analysis was performed according to previously established standard protocols using GC-FID.\nIn a first round four individual isolate from each transformation was tested. Cultivation was performed in 24 well plates. 2 mL YPD was inoculated from patches of individual clones and incubated for 24 h at 28° C., 1000 rpm. After 24 h OD600 was measured and the cells were centrifuged at 1000 rpm. The cell pellets were resuspended in 1 mL S2 media and 10 g/L methyl palmitate was added. The cells were incubated for 24 h at 28° C., 1000 rpm. Cultivations were stored at −20° C. until analyzed. Next, four clones of the best performing positive integrant were tested. Cultivation was performed in 24 well plates. 2 mL YPD was inoculated from patches of individual clones and incubated for ˜28 h at 28° C., 1000 rpm. After 28 h OD600 was measured and the cells were centrifuged at 1000 rpm. The cell pellets were resuspended in 1 mL S2 media and 10 g/L methyl palmitate was added. The cells were incubated for 18 h at 28° C., 1000 rpm. Cultivations were stored at −20° C. until analyzed.\nCell pellets were resuspended with 500 μL 5% NaOH (in methanol) then heated for 1 hour at 85° C. Samples were cooled down and then acidified by adding 400 μL 5N HCl. Next, 500 μL chloroform (containing 1 mM C17:0 heptadecanoate internal standard) were added to samples. Samples were mixed vigorously then spun down for 2 minutes at 13,000 RPM using a table top centrifuge. 450 μL chloroform were transferred to a new vial then evaporated at 85° C. for ˜15 minutes. Samples were then resuspended in 50 μL BSTFA (and were now ready for GC analysis). After analysis of the fatty alcohols samples were diluted ˜1:10 and rerun on the GC to improve peak separation of the fatty acid peaks.\nAll quantifications were based on the concentration of the internal standard. The concentration of the internal standard C17ME is 1 mM. The final concentration of fatty alcohols as well as fatty acids were calculated based on the effective carbon number compared to the internal standard."}},
  "data": [
    {"molecule": "[Zn+2]", "note": "[Zn2+]", "values": [
      {"measurement": "inhibitory concentration", "setting": "ALE1p (=LCA1p)", "value": "above 0.1 mM"}
    ]},
    {"molecule": "B1", "values": [
      {"measurement": "Z11-16OH titer", "setting": "methyl palmitate [1]", "value": "~80", "unit": "mg/L"},
      {"measurement": "Z11-16OH titers compared to the HaFAR double copy strain", "setting": "methyl palmitate [2]", "value": "distinct increase of Z11-16OH titers"}
    ]},
    {"molecule": "B2", "values": [
      {"measurement": "Z11-16OH titer", "setting": "methyl palmitate [1]", "value": "~120", "unit": "mg/L"},
      {"measurement": "Z11-16OH titers compared to the HaFAR double copy strain", "setting": "methyl palmitate [2]", "value": "distinct increase of Z11-16OH titers"}
    ]}
  ]
}
